Data: article PMC4937415, “Peroxiredoxin 1 interacts with and blocks the redox factor APE1 from activating interleukin-8 expression” (Scientific Reports, 2016)

Target: the molecule itself
Test: SEC; as a6, but HeLa cells treated with 20 μM E3330 for 4 h; fractions 23 to 28 probed with anti-PRDX1

B1: Peroxiredoxin 1 (PRDX1) (natural protein, human (endogenous in HeLaS and HeLa), UniProt Q06830 1-199, looked up)
chain: MSSGNAKIGHPAPNFKATAVMPDGQFKDISLSDYKGKYVVFFFYPLDFTFVCPTEIIAFSDRAEEFKKLNCQVIGASVDSHFCHLAWVNTPKKQGGLGPMNIPLVSDPKRTIAQDYGVLKADEGISFRGLFIIDDKGILRQITVNDLPVGRSVDETLRLVQAFQFTDKHGEVCPAGWKPGSDTIKPDVQKSKEYFSKQK
notes: endogenous PRDX1 of HeLaS and HeLa cells; monomer 22 kDa, dimeric form 44 kDa on blots; source: endogenous, HeLaS nuclear, cytosolic and total extracts; endogenous, HeLa nuclear extract
- stoichiometry N: 2
